These results are taken from US20070004909A1 (MacroGenics, published 2007).

Where two headings read alike, the source gives them in different places.

Assay [1] has as its target T1, soluble CD16A (sCD16A) (UniProt P08637 17-208, limits assumed).
T1 construct: extracellular domain; Amine-coupled to the chip in SPR; biotin- or HRP-conjugated as the probe in the sandwich ELISAs; also called FcγRIIIA; sCD16A-Biotin
Put plainly: sandwich ELISA: sCD32B coated on the plate, normalised conditioned medium titrated, HRP-conjugated sCD16A as the probe; OD450. How it is done:
The binding of diabody molecules comprising Fc domains to sCD32B and sCD16A was assayed in a sandwich ELISA. Diabodies assayed were produced by 4 recombinant expression systems: cotransfection of pMGX669+pMGX674, expressing constructs 1 and 6, respectively; cotransfection of pMGX669+pMGX678, expressing constructs 2 and 8, respectively; cotransfection of pMGX677+pMGX674, expressing constructs 7 and 6, respectively; and cotransfection of pMGX677+pMGX678, expressing constructs 7 and 8, respectively. sCD32B was used as the target protein. The secondary probe was HRP conjugated sCD16A.
(§1) ELISA: The binding of diabody molecules secreted into the medium was assayed by sandwich ELISA as described, supra. Unless indicated, CD32B was used to coat the plate, i.e., as the target protein, and HRP-conjugated CD16 was used as the probe.

Assay [2] addresses T1, soluble CD16A (sCD16A). The assay is described as above. How it is done: The binding of diabody molecules comprising Fc domains and engineered disulfide bonds between the ‘lighter’ and ‘heavier’ polypeptide chains to sCD32B and sCD16A was assayed in a sandwich ELISA. Diabodies assayed were produced by 3 recombinant expression systems: expressing constructs 1 and 10, expressing constructs 1 and 9, and expressing constructs 11 and 12, respectively. sCD32B was used as the target protein. The secondary probe was HRP conjugated sCD16A. Binding of h3G8 was used as control.
as §1
The source holds these as a separate data set.

The target of assay [3] is T1, soluble CD16A (sCD16A). Put plainly: SPR (BIAcore 1000); receptor amine-coupled (~1000 RU), analyte 6.25-200 nM; units not printed (koff/kon implies nM). The procedure:
(§2) The binding of h2B6-h3G8 CBD, h2B6 CMD and h3G8 CMD to sCD16A, and sCD32B was assayed by SPR analysis. h3G8 scFv was also tested as a control. (A) Binding of to h3G8 CMD sCD16A; (B) Binding of h2B6-h3G8 CBD to sCD16A; (C) Binding of h3G8 scFv to sCD16A; (D) Binding of h2B6 CMD to sCD32B; and (E) Binding of h2B6-h3G8 CBD to sCD32B. Diabodies were injected at concentrations of 6.25-200 nM over receptor surfaces at a flow rate of […] for 180 sec.
(§3) SPR analysis was also used to estimate the kinetic and equilibrium constants of the CMDs and h2B6-h3G8 CBD to sCD16 and/or sCD32B. Results were compared to the same constants calculated for an h3G8 scFV. FIGS. 7A-E show the graphical results of the SPR analysis. The kinetic on and off rates, as well as the equilibrium constant, calculated from the results depicted in FIG. 7 are provided in Table 13.
For orientation: In SPR one partner is held on a chip, and binding of the other changes the refractive index at the surface.

The target in assay [4] is T2, soluble CD32B (sCD32B) (UniProt P31994 43-217, limits assumed).
T2 construct: extracellular domain; As immobilised on the BIAcore chip; also called FcγRIIB
T2 sequence (looked up): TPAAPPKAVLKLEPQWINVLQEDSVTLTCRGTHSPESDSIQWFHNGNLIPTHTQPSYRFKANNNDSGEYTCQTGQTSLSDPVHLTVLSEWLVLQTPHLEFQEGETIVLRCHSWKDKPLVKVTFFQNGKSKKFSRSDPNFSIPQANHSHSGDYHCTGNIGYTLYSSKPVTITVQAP
Described as above. The procedure:
as §2, §3

The target in assay [5] is T3, sCD32B-Ig (UniProt P31994 43-217).
T3 construct: extracellular domain; also called CD32B (ELISA coat); sCD32B (target protein of the sandwich ELISAs); not shown: Ig part of sCD32B-Ig is not described
T3 sequence (looked up): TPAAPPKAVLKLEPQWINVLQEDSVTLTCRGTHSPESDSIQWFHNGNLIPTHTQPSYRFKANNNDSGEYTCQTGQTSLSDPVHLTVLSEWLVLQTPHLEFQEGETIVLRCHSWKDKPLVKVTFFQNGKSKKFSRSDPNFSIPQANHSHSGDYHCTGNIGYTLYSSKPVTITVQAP
The assay can be described thus: sandwich ELISA: sCD32B-Ig coated on the plate, diabody titrated, detected with labelled sCD16A; OD450. The procedure: The binding of h2B6-h3G8 CBD to sCD32B and sCD16A was assayed in a sandwich ELISA. sCD32B was used as the target protein. The secondary probe was HRP conjugated sCD16A. h3G8 CMD, which binds CD16A, was used as control.
ELISA: The binding of eluted and purified diabodies was characterized by ELISA assay, as described in 5.4.2. 50 ul/well of a 2 ug/ml solution of sCD32B-Ig was coated on 96-well Maxisorp plate in Carbonate buffer at 4° C. over night. The plate was washed three times with PBS-T (PBS, 0.1% Tween 20) and blocked by 0.5% BSA in PBS-T for 30 minutes at room temperature. Subsequently, h2B6-h3G8 CBD, h2B6 CMD, or h3G8 CMD were diluted into the blocking buffer in a serial of two-fold dilutions to generate a range of diabody concentrations, from 0.5 μg/ml to 0.001 μg/ml. The plate was then incubated at room temperature for 1 hour. After washing with PBS-T three times, 50 ul/well of 0.2 ug/ml sCD16A-Biotin was added to each well. The plate was again incubated at room temperature for 1 hour. After washing with PBS-T three times, 50 ul/well of a 1:5000 dilution of HRP conjugated streptavidin (Amersham Pharmacia Biotech) was used for detection. The HRP-streptavidin was allowed to incubate for 45 minutes at room temperature. […] The OD450 nm was read by using a 96-well plate reader and SOFTmax software, and results plotted using GraphPadPrism 3.03 software. […]
On the technique in general: An ELISA detects its analyte on a solid surface through an enzyme-linked reagent.

The target of assay [6] is T4, soluble CD32A (sCD32A) (UniProt P12318 34-217, limits assumed).
T4 construct: extracellular domain; Negative control surface in SPR; also called control receptor
T4 sequence (looked up): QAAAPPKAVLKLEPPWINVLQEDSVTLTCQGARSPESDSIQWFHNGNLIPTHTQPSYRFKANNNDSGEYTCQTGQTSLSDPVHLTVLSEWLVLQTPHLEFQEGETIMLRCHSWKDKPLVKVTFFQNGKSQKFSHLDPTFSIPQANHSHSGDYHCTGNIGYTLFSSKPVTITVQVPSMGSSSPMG
Put plainly: SPR (BIAcore), sCD32A (negative control receptor) immobilised, diabody injected for 60 s. The procedure: The binding of h2B6-h3G8 CBD, h2B6 CMD and h3G8 CMD to sCD16A, sCD32B, and sCD32A (negative control) was assayed by SPR analysis. h3G8 scFv was also tested as a control. (A) Binding to sCD16; (B) Binding to sCD32B and (C) Binding to sCD32A. Diabodies were injected at a concentration of 100 NM, and scFv at a concentration of 200 nM, over receptor surfaces at a flow rate of […] for 60 sec.

T1 sequence (P08637 17-208 limits assumed): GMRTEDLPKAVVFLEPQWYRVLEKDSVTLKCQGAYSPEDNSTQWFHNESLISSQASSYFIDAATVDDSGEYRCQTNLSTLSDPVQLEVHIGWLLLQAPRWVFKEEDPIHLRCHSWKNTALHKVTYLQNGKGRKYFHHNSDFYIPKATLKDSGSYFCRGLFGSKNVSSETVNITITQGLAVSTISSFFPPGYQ

B1: tetrameric IgG-like diabody of constructs 7 and 8 (pMGX0677+pMGX0678) (bispecific antibody)
chain 1: EIVLTQSPDFQSVTPKEKVTFTCRTSQSIGTNIHWYQQKPDQSPKLLIKEVSESISGVPSRFSGSGSGTDFTLTINSLEAEDAATYYCQQSNTWPFTFGGGTKVEIKGGGSGGGGQVTLRESGPALVKPTQTLTLTCTFSGFSLSTSGMGVGWIRQPPGKALEWLAHIWWDDDKRYNPALKSRLTISKDTSKNQVVLTMTNMDPVDTATYYCAQINPAWFAYWGQGTLVTVSSLGGCFNRGEC
chain 2: not shown
notes: heavier chain construct 8 (hu3G8VL-hu2B6VH-LGGC-hinge/Fc of human IgG1, A215V); Tested as normalized conditioned medium
With B1, the binding result in assay [1] is reported as “binds”.

B2: diabody of constructs 1 and 9 (pMGX0669+pMGX0719), N-terminal hinge/Fc (bispecific antibody, human IgG1)
chain 1: EIVLTQSPDFQSVTPKEKVTFTCRTSQSIGTNIHWYQQKPDQSPKLLIKEVSESISGVPSRFSGSGSGTDFTLTINSLEAEDAATYYCQQSNTWPFTFGGGTKVEIKGGGSGGGGQVTLRESGPALVKPTQTLTLTCTFSGFSLSTSGMGVGWIRQPPGKALEWLAHIWWDDDKRYNPALKSRLTISKDTSKNQVVLTMTNMDPVDTATYYCAQINPAWFAYWGQGTLVTVSSLGGC
chain 2: not shown
notes: Designed as tetravalent IgG-like diabody; Tested as normalized conditioned medium; also called constructs 9 and 1; constructs 9+1
As for B2, the binding result in assay [2] is “binds”.

B3: diabody of constructs 1 and 10 (pMGX0669+pMGX0718), N-terminal Fc (bispecific antibody)
chain 1: EIVLTQSPDFQSVTPKEKVTFTCRTSQSIGTNIHWYQQKPDQSPKLLIKEVSESISGVPSRFSGSGSGTDFTLTINSLEAEDAATYYCQQSNTWPFTFGGGTKVEIKGGGSGGGGQVTLRESGPALVKPTQTLTLTCTFSGFSLSTSGMGVGWIRQPPGKALEWLAHIWWDDDKRYNPALKSRLTISKDTSKNQVVLTMTNMDPVDTATYYCAQINPAWFAYWGQGTLVTVSSLGGC
chain 2: not shown
notes: also called constructs 10 and 1; constructs 10+1; copies: 2 + 2
Turning to B3, the binding result in assay [2] is given as “binds”.

B4: h2B6-h3G8 covalent bispecific diabody (CBD) (bispecific antibody)
chain 1: EIVLTQSPDFQSVTPKEKVTFTCRTSQSIGTNIHWYQQKPDQSPKLLIKEVSESISGVPSRFSGSGSGTDFTLTINSLEAEDAATYYCQQSNTWPFTFGGGTKVEIKGGGSGGGGQVTLRESGPALVKPTQTLTLTCTFSGFSLSTSGMGVGWIRQPPGKALEWLAHIWWDDDKRYNPALKSRLTISKDTSKNQVVLTMTNMDPVDTATYYCAQINPAWFAYWGQGTLVTVSSLGGC
chain 2: DIVMTQSPDSLAVSLGERATINCKASQSVDFDGDSFMNWYQQKPGQPPKLLIYTTSNLESGVPDRFSGSGSGTDFTLTISSLQAEDVAVYYCQQSNEDPYTFGQGTKLEIKGGGSGGGGQVQLVQSGAEVKKPGASVKVSCKASGYTFTNYWIHWVRQAPGQGLEWIGVIDPSDTYPNYNKKFKGRVTMTVVVSTSTAYMELRSLRSDDTAVYYCARNGDSDYYSGMDYWGQGTTVTVSSLGGC
notes: also called h2B6-h3G8 CBD; h2B6-h3G8 diabody
As for B4, the equilibrium dissociation constant (Kd) in assay [3] is 22.7 nM; in assay [4] it was 15 nM. In addition, in assay [5], the “EC50 (read off the curve)” value was about 0.04 µg/mL. Moreover, in assay [6], the binding result is “no binding (tested: 100 nM)”.

B5: diabody of constructs 11 and 12, C-terminal hinge-Fc and engineered VL/VH cysteines (bispecific antibody, human IgG1)
chain 1: not shown
chain 2: DIVMTQSPDSLAVSLGERATINCKASQSVDFDGDSFMNWYQQKPGQPPKLLIYTTSNLESGVPDRFSGSGSGTDFTLTISSLQAEDVAVYYCQQSNEDPYTFGQGTKLEIKGGGSGGGGQVQLVQSGAEVKKPGASVKVSCKASGYTFTNYWIHWVRQAPGQCLEWIGVIDPSDTYPNYNKKFKGRVTMTVVVSTSTAYMELRSLRSDDTAVYYCARNGDSDYYSGMDYWGQGTTVTVSSFNRGEC
notes: construct 12 = Hu3G8VL-Hu2B6VH(G44C)-FNRGEC; About 150 kDa on the blot
Consider B5, for which, in assay [2], the binding result is given as “binds”.

As usually defined, the Kd is the free concentration of one partner at which half of the binding sites on the other are occupied at equilibrium, for simple one-to-one binding. Low values mean tighter binding, high ones weaker binding. The EC50 (read off the curve) is the concentration giving half of the maximal effect. High values mean a less potent agent, low ones a more potent agent.
